In publication PMC3227653 (PLoS ONE, 2011) one finds Kd, koff and kon data, which are given here for four molecules.

B1: A5.1m (VHH)
VHH: QVKLEESGGGLVQAGGSLRLSCAASGRTFSMYRMGWFRQAPGKEREFVCVITRNGSSTYYADSVKGRFTCSRDNAKNTVYLQMNSLKPEDTALYYCAATSGSSYLDAAHVYDYWGQGTQVTVSS
B2: A26.8m (VHH)
VHH: QVKLEESGGGLVQAGGSLRLSCAASERTFSRYPVAWFRQAPGAEREFVCVISSTGTSTYYADSVKGRFTCSRDNAKVTVYLQMNNLKREDTAVYFCAVNSQRTRLQDPNEYDYWGQGTQVTVSS
B3: A4.2m (VHH)
VHH: QVKLEESGGGLVQAGGSLRLSCAASGRTFNTLSMGWFRQAPGKEREFVCAVSRSGGSTYYADSVKGRFTCSRDNAKNTVYLQMNSLKPEDTAVYYCAAAATKSNTTAYRLSFDYWGQGTQVTVSS
B4: A20.1m (VHH)
VHH: QVQLVESGGGLAQAGGSLRLSCAASGRTFSMDPMAWFRQPPGKEREFVCAGSSTGRTTYYADSVKGRFTCSRDNAKNTVYLQMNSLKPEDTAVYYCAAAPYGANWYRDEYAYWGQGTQVTVSS

The experiment addresses Clostridium difficile toxin A (Clostridioides difficile …, UniProt P16154). Kind of experiment: SPR. As to conditions: both partners purified.
Take B1: binding was put at a Kd of 17 nM, the koff turned out to be 0.016 s⁻¹ and the kon is 950000 M⁻¹ s⁻¹.

Take B2: binding was characterised by a dissociation constant (Kd) of 28 nM, the koff was found to be 0.028 s⁻¹ and the on-rate constant (kon) worked out at 1e+06 M⁻¹ s⁻¹.

For B3, the Kd amounted to 20 nM, the koff amounted to 0.019 s⁻¹ and the kon is 930000 M⁻¹ s⁻¹.

Regarding B4, the Kd worked out at 9.2 nM, the koff is 0.0059 s⁻¹ and the on-rate (kon) is 640000 M⁻¹ s⁻¹.

As usually defined, the Kd is a measure of binding affinity in units of concentration. Read a low Kd as higher affinity. By koff is commonly meant a measure of how fast the partners let go of each other. By kon is commonly meant a measure of how fast the partners come together. Lower therefore signals slower complex formation.
